Measured values reported in US6218527.

How the values were obtained:
[1] = target: T1, ABF1 (Arabidopsis thaliana) (UniProt Q9M7Q5); experiment: one_hybrid
T1 sequence: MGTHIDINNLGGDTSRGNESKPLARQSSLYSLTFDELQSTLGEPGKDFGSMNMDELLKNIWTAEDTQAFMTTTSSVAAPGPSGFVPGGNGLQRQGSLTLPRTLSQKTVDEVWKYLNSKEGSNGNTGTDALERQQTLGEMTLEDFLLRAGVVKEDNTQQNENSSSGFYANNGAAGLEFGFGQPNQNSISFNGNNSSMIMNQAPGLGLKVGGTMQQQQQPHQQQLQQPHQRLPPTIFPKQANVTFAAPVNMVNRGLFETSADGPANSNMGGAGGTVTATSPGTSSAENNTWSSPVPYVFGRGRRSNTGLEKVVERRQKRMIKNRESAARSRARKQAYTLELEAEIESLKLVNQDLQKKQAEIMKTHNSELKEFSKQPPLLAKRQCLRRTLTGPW

[2] = test system: ABF2 (Arabidopsis thaliana); experiment: one_hybrid

Question: How did the activity (fold over control vector) [1] turn out when Em1a trimer reporter was run?
Answer: Its activity (fold over control vector) is 6.

Question: What about the activity (fold over background) [2] of the same substance?
Answer: Its activity (fold over background) is 2.
